Assay results: patent publication US20260191943A1, “Methods for Preparing Conjugated Capsular Saccharide Antigens and Uses Thereof” (PFIZER INC., priority 2022, published 2026)
Square brackets hold non-standard residues; d marks the D form. Ends that are not written are not given here. Pra = C#CC[C@H](N)C(=O)O

Assay: PADRE peptide solubility / staying in solution
Assay type: physicochemical
Experimental: It is possible that the PADRE constructs disclosed herein may have solubility limitations in aqueous solutions (<5 mg/ml max concentration) versus DMSO solutions (<10 mg/ml max concentration), so conditions for PADRE solubility were adjusted to achieve optimum click conjugation efficiency. Ionic gelling may have occurred during the CDAP or DMTMM direct incorporation of PADRE 2, as buffer matrix with high ionic strength in higher concentrated Pn3 solutions promotes gelling. Aggregation with an alkynated CRM197 batch fed approach was also observed in click conjugation reactions. To avoid potential solubility issues, the following conditions with PADRE 3 were proposed: 1. Lower the ionic strength of the reaction matrix and diafiltration matrix to 10 mM phosphate pH 7.0, 2. Slow dose addition of alkynated PADRE 3 into the reaction, and 3. make stock solution of alkynated PADRE 3 in water instead of DMSO to eliminate the need for a lyophilization step.
A reaction was run omitting DMSO from a click conjugate protocol for alkynated trimeric gp120 Epitope mimic peptides using 5 mM Sodium ascorbate, 5 mM aminoguanidine, 0.1 mM CuSO4, and 0.5 mM THPTA ligand in 10 mM phosphate buffer at pH 7.4 containing 5% DMSO for 18 hr [Schellinger et al. (2011) J Am Chem Soc 133(10):3230-3233]. […]

{d-ALA}KVAAWTLKAA{d-ALA}{Pra} ([dA]KVAAWTLKAA[dA][Pra]) [PADRE 3]
peptide solution solubility (37° C. in the incubator at 200 rpm agitation, DMSO omitted): stayed soluble
stock solution staying in solution (alkynated PADRE 3 stock in water, after 18 hr at room temperature): did not come out of solution
